The supplement of paper PMC10126150
± gives the standard deviation of the averaged measurements.

System: ATP
Test: switch fluorescence ratio, 500 uM ATP over buffer (Cy3 cluster intensity, sum of 5 cycles each) (fold (ratio)); higher = stronger signal-on switching upon ATP binding; sequences stand for … in TCGTCGGCAGCGTCAGATGTGTATAAGAGACAGTTTTTTTTTTTTTTTTTTTTTTTTT…TC
Conditions: aptamer strand: ATP DNA aptamer (quencher-CACCTGGGGGAGTATTGCGGAGGAAGG + anchor), 100 nM annealed; ATP concentration: 500 uM
Method in brief: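 The fluorescence ratio divides summed target-cycle Cy3 intensity by summed buffer-cycle Cy3 intensity for each cluster and is averaged per switch-domain sequence. Cy3-labelled switching-strand clusters on a modified Illumina MiSeq flow-cell were annealed to 100 nM quencher-labelled ATP aptamer, then imaged in selection buffer and again after 15 min with 500 uM ATP at 22 °C. Five such cycles were run, with NaOH stripping and re-annealing between them, and clusters outside 100-1000 RFU were excluded.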
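Also: ATP exposure 15 min at 22 °C before imaging.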

Sequence | switch fluorescence ratio
AGTTAACCGG | 1.006 ± 0.0027
AGTTACGCGC | 1.04 ± 0.032
AGTTACTGGG | 1.06 ± 0.046
AGTTAGAGGT | 1.05 ± 0.018
AGTTAGAGTC | 0.99925 ± 0.00026
AGTTAGATCT | 1.005 ± 0.009
AGTTAGGCAA | 1.01 ± 0.014
AGTTAGTATG | 0.979 ± 0.032
AGTTAGTTGT | 1 ± 0.028
AGTTATGTGG | 1 ± 0.056
AGTTATTATT | 0.963 ± 0.0055
AGTTATTGTG | 1.04 ± 0.094
AGTTCTGGCC | 1.03 ± 0.068
AGTTGAACCA | 1 ± 0.012
AGTTGAGAGG | 0.972 ± 0.0088
AGTTGAGCAA | 1.29 ± 0.048
AGTTGATCCC | 1.02 ± 0.025
AGTTGATTGG | 0.983 ± 0.027
AGTTGCCGCG | 0.996 ± 0.012
AGTTGCCTG | 0.997 ± 0.08
AGTTGCGTTG | 0.996 ± 0.015
AGTTGCTAAG | 0.986 ± 0.035
AGTTGGAAAG | 0.977 ± 0.013

Sequence | switch fluorescence ratio
AGTTGGAGTT | 0.978 ± 0.043
AGTTGGGGCT | 1.01 ± 0.023
AGTTGGGTCA | 0.993 ± 0.044
AGTTGGGTGT | 1.01 ± 0.013
AGTTGTGCGT | 0.981 ± 0.012
AGTTGTTGGT | 1.01 ± 0.014
AGTTGTTTG | 1.002 ± 0.0099
AGTTGTTTTG | 0.998 ± 0.015
AGTTTAAGAA | 0.98 ± 0.031
AGTTTAGAAT | 1.001 ± 0.0052
AGTTTAGGTA | 1.01 ± 0.052
AGTTTATCGT | 1.03 ± 0.043
AGTTTGACCT | 1.15 ± 0.032
AGTTTGACTC | 0.997 ± 0.026
AGTTTGCTTT | 0.995 ± 0.035
AGTTTGGGTG | 1.01 ± 0.0051
AGTTTGTCAT | 0.967 ± 0.032
AGTTTTCCAT | 1.0004 ± 0.00055
AGTTTTGGGC | 0.976 ± 0.016
AGTTTTGGTC | 1.002 ± 0.0056
AGTTTTTGGG | 0.97 ± 0.037
ATAAAAAATC | 0.986 ± 0.017
ATAAAAATCG | 0.989 ± 0.027

Sequence | switch fluorescence ratio
ATAAAACGC | 1.04 ± 0.071
ATAAAATTGG | 0.988 ± 0.034
ATAAACGGCG | 1.01 ± 0.024
ATAAACGGCT | 1.01 ± 0.021
ATAAACGGGG | 0.9917 ± 0.001
ATAAACGTTT | 1.018 ± 0.0069
ATAAACTTGG | 1.01 ± 0.033
ATAAAGAGAG | 1.01 ± 0.023
ATAAAGCGAT | 1.06 ± 0.023
ATAAAGGAAG | 0.99 ± 0.011
ATAAAGTCAC | 1.16 ± 0.18
ATAAATGAGG | 1.01 ± 0.014
ATAAATTTTT | 1.01 ± 0.023
ATAACAAACT | 1.05 ± 0.012
ATAACACGGC | 1.05 ± 0.1
ATAACGCAGT | 1.0027 ± 0.00069
ATAACGTTCG | 1.06 ± 0.052
ATAACGTTTT | 1.02 ± 0.019
ATAACTACTA | 1.06 ± 0.015
ATAAGACCGT | 1.015 ± 0.0046
ATAAGATGCC | 0.963 ± 0.014
ATAAGGAGGG | 1 ± 0.01
ATAAGGATAG | 1 ± 0.011

Sequence | switch fluorescence ratio
ATAAGGATGG | 0.9788 ± 0.0034
ATAAGGCTTT | 0.989 ± 0.029
ATAAGGGGAT | 0.983 ± 0.023
ATAAGTGATC | 0.981 ± 0.069
ATAAGTGATG | 0.995 ± 0.025
ATAAGTGCAA | 1.06 ± 0.011
ATAAGTTAAG | 0.999 ± 0.013
ATAATATAAC | 1 ± 0.018
ATAATCATTT | 1.02 ± 0.021
ATAATGCAGG | 1 ± 0.032
ATAATGTCGC | 0.9702 ± 0.0012
ATAATTAAGG | 0.99 ± 0.028
ATAATTATGC | 1.025 ± 0.0052
ATAATTCATC | 1 ± 0.013
ATAATTGGCC | 0.97422 ± 0.00035
ATAATTGGGG | 0.98 ± 0.026
ATAATTGGGT | 0.993 ± 0.022
ATAATTTAGG | 0.9859 ± 0.0029
ATAATTTATT | 0.996 ± 0.012
ATAATTTCAA | 0.999 ± 0.017
ATAATTTGAC | 1.04 ± 0.058
ATAATTTTAG | 0.999 ± 0.031
ATAATTTTTT | 1.03 ± 0.063

Sequence | switch fluorescence ratio
ATACAAGGGG | 1.03 ± 0.033
ATACAGGGCT | 1.01 ± 0.029
ATACATAACG | 1.38 ± 0.052
ATACATTGTC | 0.978 ± 0.074
ATACCAATGA | 1.05 ± 0.029
ATACCAGTG | 1.12 ± 0.055
ATACCTCTTG | 0.992 ± 0.022
ATACCTGGTC | 1.053 ± 0.0017
ATACGAATTC | 1.01 ± 0.049
ATACGCCGGT | 1.013 ± 0.004
ATACGGGGCT | 1.03 ± 0.027
ATACGTTTCG | 0.998 ± 0.03
ATACTACGGA | 1.03 ± 0.062
ATACTATTTT | 0.996 ± 0.023
ATACTCAACA | 1.248 ± 0.0099
ATACTCTATT | 1.07 ± 0.025
ATACTGAGGC | 0.999 ± 0.029
ATACTGGACT | 1.201 ± 0.0084
ATACTTATTG | 0.99646 ± 0.0008
ATAGAAGCGG | 0.9684 ± 0.0029
ATAGAATCAG | 0.975 ± 0.038
ATAGAATGTG | 1.007 ± 0.0082
ATAGAGGAGA | 0.992 ± 0.048

Sequence | switch fluorescence ratio
ATAGAGTGCG | 0.957 ± 0.024
ATAGATTAGT | 0.996 ± 0.035
ATAGCGCCG | 1.03 ± 0.035
ATAGCTGGTT | 0.991 ± 0.018
ATAGGAGTAT | 1.01 ± 0.026
ATAGGATCTT | 0.996 ± 0.028
ATAGGCAGAG | 1.003 ± 0.0083
ATAGGCGGGA | 0.9932 ± 0.00079
ATAGGGCCTT | 1.02 ± 0.05
ATAGGGGCGG | 0.978 ± 0.035
ATAGGGGGGA | 1.01 ± 0.018
ATAGGGGTT | 1.021 ± 0.005
ATAGGGTTGC | 1.01 ± 0.014
ATAGGTACGC | 1.04 ± 0.036
ATAGGTATGT | 0.998 ± 0.023
ATAGGTTTGG | 0.97 ± 0.014
ATAGGTTTGT | 0.989 ± 0.013
ATAGGTTTTA | 0.976 ± 0.017
ATAGTAAGTA | 0.996 ± 0.024
ATAGTAGGTA | 0.99137 ± 0.00055
ATAGTATGGT | 0.9976 ± 0.0089
ATAGTCAAAC | 1.027 ± 0.0025
ATAGTCATAT | 0.9978 ± 0.0017

Sequence | switch fluorescence ratio
ATAGTCCTCC | 1.2 ± 0.0043
ATAGTGAGTT | 1 ± 0.016
ATAGTGATGT | 0.995 ± 0.04
ATAGTGGGGC | 1.056 ± 0.0054
ATAGTGGGGG | 0.975 ± 0.017
ATAGTGTGGC | 0.952 ± 0.029
ATAGTTTTCC | 1 ± 0.024
ATATAAGCCC | 1.02 ± 0.021
ATATAAGGGT | 1.02 ± 0.015
ATATAAGTTC | 1.06 ± 0.055
ATATACGTTG | 1.03 ± 0.011
ATATAGGGGG | 0.997 ± 0.014
ATATATAGCC | 1.01 ± 0.022
ATATATCTAG | 0.998 ± 0.029
ATATATGGGA | 0.973 ± 0.022
ATATATGGTT | 0.988 ± 0.036
ATATATGTTT | 0.9649 ± 0.0016
ATATATTGGC | 1.02 ± 0.054
ATATATTTGT | 1.008 ± 0.0041
